Test results taken from US20150104459A1.

Assays:
[1] = molecular target: M2 protein of influenza A/Wisconsin/67/05 (H3N2), on inactivated whole virions (influenza A virus A/Wisconsin/67/05 (H3N2)); assay: ELISA, positive control antibody on inactivated whole virions
[2] = molecular target: 23mer synthetic M2e peptide of A/Fort Worth/1/50 (influenza A virus A/Fort Worth/1/50 (H1N1)); assay: ELISA, 23mer M2e peptide coated at 1 ug/ml

Sequence of TCN-032 (8I10) (antibody) (VH): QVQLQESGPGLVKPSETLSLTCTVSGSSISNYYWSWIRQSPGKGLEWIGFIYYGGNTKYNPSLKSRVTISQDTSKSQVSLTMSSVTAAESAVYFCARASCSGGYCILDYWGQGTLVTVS
Sequence of TCN-032 (8I10) (antibody) (VL): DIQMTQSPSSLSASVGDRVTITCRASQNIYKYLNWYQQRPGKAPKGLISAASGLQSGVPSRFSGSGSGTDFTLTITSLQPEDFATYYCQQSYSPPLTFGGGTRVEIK

## TCN-032 (8I10) (antibody)
[1]
  ELISA virus binding (OD450): 3.62 OD450

## chimeric mouse V-region/human IgG1 kappa 14C2 antibody
[2]
  EC50: 0.01 µg/mL
